Results taken from US9725702B2, “Laccase from ganoderma lucidum capable of enhancing enzymatic degradation of lignocellulolytic biomass” (DANMARKS TEKNISKE UNIVERSITET, priority 2012, dated 2017).

Legend:
Type in all cases: biochemical
[1] = Laccase activity assay with ABTS; influence of pH and temperature
Description: FIG. 8. A surface response plot of the relative activity (U/mL) of the LacGL1 laccase expressed in Pichia pastoris as a function of pH and temperature. The effect of the pH and temperature on the LacGL1 laccase activity, expressed from P. pastoris, was modeled via randomized, full factorial, statistically designed experiment—MODDE program version 7.0.0.1 (Umetrics, Umeå, Sweden). The statistical design consisted of 12 experiments, including a triplicate repetition at the center point (pH 5 and 40° C.), using ABTS as a substrate. The influence of the temperature and pH was monitored between 25-55° C. and pH 4-6 (for 0.1 M citrate-phosphate buffer), respectively. The mixture with the ABTS and buffer at the defined pH value was incubated for 5 min. in a thermocycler set to a desired temperature and afterwards added to a previously pre-diluted enzyme in a microtiter plate which was incubated for 1 min. in a microtiter plate reader set to a desired temperature. After mixing the substrate and buffer with the enzyme, the initial rate of the product formation was measured as described above. The volumes and concentrations of enzyme, substrate, and buffer were identical as for the laccase activity assay.
The laccase activity was measured based on a modified method of Ters et al. (2009). The laccase activity was defined as the amount of the enzyme required to oxidise 1 μmol of ABTS per minute at 25° C., and pH 4.7. The assay mixture contained: 0.1 M citrate-phosphate buffer (255 μL, pH 4.7), ABTS (5 μL, 4 mM (ABTS stock solution)), and pre-diluted laccase (5 μL) that ensured the linear range of Michaelis-Menten kinetics. The oxidation of ABTS was monitored at 420 nm (ε420=36800 M^−1cm^−1) for 2 min. in an Infinite 200 microtiter plate reader (Tecan, Salzburg, Austria). Laccase activity assays on the substrates: hydroquinone (248 nm), 2.6-dimethoxyphenol (470 nm), and guaiacol (436 nm) was done similarly with the substrate concentration as described in Table 2 using the following extinction coefficient values: 17.542 M^−1cm^−1, 35.645 M^−1cm^−1, and 6.400 M^−1cm^−1, respectively (Minussi et al. 2007). The data collection was monitored by the program Tecan i-control version 1.5.14.0 (Tecan, Salzburg, Austria). The calculated laccase activity was corrected by the absorbance of a control sample which contained: 0.1 M citrate-phosphate buffer (255 μL, pH 4.7), ABTS (5 μL, 4 mM), and 5 μL of distilled water instead of the enzyme. […]
The effect of the pH and temperature on the LacGL1 laccase activity was determined with a statistically designed, randomized, full factorial experiment as described in FIG. 8. The relative laccase activity was calculated based on the LacGL1 activity at pH 4.7 and 25° C. […]

[2] = Laccase-cellulase catalyzed hydrolysis of pretreated biomass, glucose release; details: with cellulase 1 or 2, pH 5.1, 50° C., 30 hour
Method: FIG. 13. A graphical comparison of glucose released over time during hydrolysis of STEX-SCB at pH 5.1 and 50° C. by each of commercial enzyme preparations Cellulase 1 (CC2) [A]; or Cellulase 2 [B], either alone, or in combination with a laccase enzyme; the tested laccases being respectively LacGL1 and GLlac1 (LacJooSS; Q9HG17) derived from G. lucidum; and laccases derived from Agaricus bisporus (Sigma 40452), Pleurotus ostreatus (Sigma 75117) and, Trametes versicolor (Sigma 51639).
The commercial fungal laccases were purchased as lyophilized protein samples from Sigma Aldrich. A solution of each of the above 5 laccases was prepared in a citric buffer containing 20% of glycerol (pH 5.1, 100 mM).
Two different commercially available cellulase enzyme preparations used in the comparative study were “Cellulase 1” and “Cellulase 2”, which were tested in combination with each of the laccases listed above.
The three different types of pretreated biomass used in the comparative study were sugarcane bagasse, barley straw and wheat straw. The source and pre-treatment of the sugarcane bagasse by steam explosion was as set out in Example 9. […] The composition of the dry and the pretreated biomass were determined according to the US National Renewable Energy Laboratory (NREL) procedures (Sluiter et al, 2010).
The laccase-cellulase catalyzed hydrolysis of the pretreated biomass samples to release glucose was performed as follows: Hydrolysis of 5% (w/v) samples of pretreated sugarcane bagasse, barley straw, and wheat straw biomass were assayed using an Enzyme/Substrate (E/S) ratio of 0.064% w/w for laccases and of 0.4% w/w for each commercial cellulase preparation in each hydrolysis reaction. The E/S dosage was based on the total protein concentration used, as determined using Pierce BCA (BiCinchoninic Acid) protein assay kit microplate procedure according to manufacturer's instruction (Thermo Fisher Scientific, Rockford, US). […]
Laccase and cellulase-mediated hydrolysis of the 3 biomass forms, measured as glucose release, are shown graphically in FIGS. 13, 14 and 15. […]

[3] = Michaelis constant (Km) of laccase for ABTS, Hanes-Wolf plot; details: substrate ABTS

B1: LacGL1: Fungal laccase from Ganoderma lucidum CBS229.93 (SEQ ID NO: 5/9), recombinantly expressed in Pichia pastoris X-33 (protein, listed as Ganoderma lucidum)
chain: GIGPKTDLTISNADVAPDGYTRAAVVVNGVFPAPLITGNKGDRFQLNVIDQMTNHTMLKSTSIHWHGFFQKGTNWADGPAFINQCPISSGHSFLYDFQVPDQAGTFWYHSHLSTQYCDGLRGPFVVYDPKDPLKKLYDIDDDSTVITLTDWYHVAARLGPRFPLGSDSTLINGLGRSTTNVTADLAVINVTQGKRYRFRLVSLSCDPNYTFSIDDHNMTVIEADGIETQPVTVNAIQIFSAQRYSFVLTANQTIDNYWIRANPNFGNVGFTDGINSAILRYAGADPVEPTTSQQTTQNLLNEVDLHPFVPKRTPGQPTQGGVDTAINMVFNFNGSNFFINNASFVPPTVPVLLQILSGAQAAQDLLPSGSVYTLPVNKSIELTFPATANAPGAPHPFHLHGHAFAVVRSAGSTVYNYDNPVWRDVVSTGTPAAGDNVTIRFQTDNPGPWFLHCHIDFHLEAGFAVVFAEDPTDTSLANPVPKAWSDLCPTYDALSVDDQ
modifications: mat_peptide (1)..(499) Mature LacGL1 laccase (minus signal peptide)
laccase activity ([1]; expressed by recombinant P. pastoris, after sterile filtration, ABTS, 25° C., pH 4.7): 17.5 U/mL
temperature at which activity is highest ([1]; pH 4.7): 40-50 °C
temperature optimum (predicted, highest relative activity) ([1]; pH 4.7, ABTS, factorial model 25-55° C.): 55 °C
pH optimum (highest relative activity) ([1]; substrate ABTS): 4.7
glucose release compared to GLlac1 [2]: the same
glucose release compared to the other tested laccases ([2]; p<0.05): significantly enhanced
Km ([3]; laccase expressed in Ganoderma lucidum CBS229.93 (native)): 107 µM
Km ([3]; recombinantly expressed in Pichia pastoris): 122 µM
